In publication PMC12578639:

B1: Major head protein (Mhp) of phage Φ80α, gp47 (natural protein)
chain: ASNNVKPQVFNPDNVMMHEKKDGTLMNEFTTPILQEVMENSKIMQLGKYEPMEGTEKKFTFWADKPGAYWVGEGQKIETSKATWVNATMRAFKLGVILPVTKEFLNYTYSQFFEEMKPMIAEAFYKKFDEAGILNQGNNPFGKSIAQSIEKTNKVIKGDFTQDNIIDLEALLEDDELEANAFISKTQNRSLLRKIVDPETKERIYDRNSDSLDGLPVVNLKSSNLKRGELITGDFDKLIYGIPQLIEYKIDETAQLSTVKNEDGTPVNLFEQDMVALRATMHVALHIADDKAFAKLVPADKRTDSVPGEV

Assays:
[1] = target: ThsB2-His6 (Sau–Thoeris ThsB2 with a C-terminal hexahistidyl tag) (Staphylococcus aureus 08BA02176); assay: SEC + other: mass photometry; complex assembled from individually purified subunits in the presence of NAD+; Superdex 200 Increase 10/300 GL, 25 mM Tris pH 7.5, 200 mM NaCl, 5% glycerol, 1 mM dithiothreitol; peaks analysed by SDS–PAGE; mass photometry at 100–200 nM
[2] = target: His6-ThsB1 (Sau–Thoeris ThsB1 with an N-terminal hexahistidyl tag) (Staphylococcus aureus 08BA02176); assay: as above

| Molecule | stoichiometry N [1] | stoichiometry N [2] |
| --- | --- | --- |
| ThsB2-His6 (Sau–Thoeris ThsB2 with a C-terminal hexahistidyl tag) (natural protein) | 2 | – |
| B1 | – | 1 |
